Laboratory results taken from patent publication US7855050.

Assays:
Test in all cases: cell-based or functional assay
[1] = target: Glycoprotein VI on human platelets of donors not sorted to one allele (random donors, 'ab' heterozygotes, or donors whose genotype is not stated) (human) (UniProt Q9HCN6)
[2] = target: Glycoprotein VI, GPVI^a allele protein (SKTQH), on platelets of 'aa' homozygous donors (human) (UniProt Q9HCN6)
[3] = target: Glycoprotein VI, GPVI^b allele protein (PEALN), on platelets of 'bb' homozygous donors (human) (UniProt Q9HCN6)

% of platelets binding annexin V at CRP 10 µg/ml [1]: 10 to 30%
platelet aggregation at a CRP concentration of 0.10 µg/ml (mean) [2]: 71%
platelet aggregation at a CRP concentration of 0.10 µg/ml (mean) [3]: 4.6%
Substance: Collagen related peptide (CRP), triple-helical peptide containing a glycine-proline-hydroxyproline repeat motif
